The source of these data is publication PMC5366330, “The Activity of a Hexameric M17 Metallo-Aminopeptidase Is Associated With Survival of Mycobacterium tuberculosis” (Frontiers in Microbiology, 2017).

For data set [1], the target named is T1, MtLAP (leucine aminopeptidase of M. tuberculosis, Rv2213) (Mycobacterium tuberculosis, UniProt P9WHT3).
T1 construct: gene pepA
As to the kind of experiment: biochemical.

Data set [2] concerns Cc1cc(=O)oc2cc(NC(=O)[C@@H](N)CC(C)C)ccc12. As to the kind of experiment: purified protein. The settings on record: divalent metal (Ni2+, […] NiSO4 in the assay).
Data set [3] concerns CSCC[C@H](N)C(=O)Nc1ccc2c(C)cc(=O)oc2c1. The data set can be described thus: purified protein. The note with it: divalent metal (Ni2+, […] NiSO4 in the assay).
Data set [4] deals with Cc1cc(=O)oc2cc(NC(=O)[C@@H]3CCCN3)ccc12. As to the kind of experiment: purified protein. The settings on record: divalent metal (Ni2+, […] NiSO4 in the assay).
Data set [5] deals with the molecule itself. As to the kind of experiment: AUC + SEC.

In general, IC50 refers to the concentration that inhibits the measured activity by half. Low readings indicate higher potency, high ones lower potency. In turn, `CC(C)C[C@H](NC(=O)[C@@H](O)[C@H](N)Cc1ccccc1)C(=O)O` [bestatin] yielded an IC50 in data set [1] of 53.8 nM.

As a reminder, the Km is the substrate concentration at which the rate is half of its maximum. As for “MtLAP (leucine aminopeptidase of M. tuberculosis, Rv2213) (Mycobacterium tuberculosis H37Rv)”, the Km in data set [2] was determined as 69.4 ± 3.6 µM; in data set [3], 61.8 ± 4.4 µM; in data set [4], 344.8 ± 49.2 µM.

B1: leucine aminopeptidase of M. tuberculosis (MtLAP) (enzyme)
chain: MTTEPGYLSPSVAVATSMPKRGVGAAVLIVPVVSTGEEDRPGAVVASAEPFLRADTVAEIEAGLRALDATGASDQVHRLAVPSLPVGSVLTVGLGKPRREWPADTIRCAAGVAARALNSSEAVITTLAELPGDGICSATVEGLILGSYRFSAFRSDKTAPKDAGLRKITVLCCAKDAKKRALHGAAVATAVATARDLVNTPPSHLFPAEFAKRAKTLSESVGLDVEVIDEKALKKAGYGGVIGVGQGSSRPPRLVRLIHRGSRLAKNPQKAKKVALVGKGITFDTGGISIKPAASMHHMTSDMGGAAAVIATVTLAARLRLPIDVIATVPMAENMPSATAQRPGDVLTQYGGTTVEVLNTDAEGRLILADAIVRACEDKPDYLIETSTLTGAQTVALGTRIPGVMGSDEFRDRVAAISQRVGENGWPMPLPDDLKDDLKSTVADLANVSGQRFAGMLVAGVFLREFVAESVDWAHIDVAGPAYNTGSAWGYTPKGATGVPTRTMFAVLEDIAKNG
notes: also called M. tuberculosis LAP; Rv2213
By stoichiometry N is commonly meant the number of molecules, sites or subunits per partner or assembly. For B1, the “stoichiometry N” value in data set [5] came to 6.
